From publication PMC11982464, “Structural insight into the catalytic mechanism of the bifunctional enzyme L-fucokinase/GDP-fucose pyrophosphorylase” (The Journal of Biological Chemistry, 2025)

Columns and labels:
[1] = tested on: C[C@@H]1O[C@H](OP(=O)(O)O)[C@@H](O)[C@H](O)[C@@H]1O; experiment: purified protein; conditions: co-substrate GTP, 50 mM Hepes pH 7.5, 2 mM MgCl2
[2] = biological target: the molecule itself; experiment: AUC + SEC-MALS; SV-AUC at 20 °C, about 0.5 mg/ml, 50 mM Tris pH 8.0, 150 mM NaCl, 40,000 rpm; SEC-MALS at 1 mg/ml in 50 mM Tris pH 8.0, 150 mM NaCl, ENrich SEC 650 column
[3] = GDP-fucose pyrophosphorylase site

Molecule “FKP-FL (L-fucokinase/GDP-β-L-fucose pyrophosphorylase, full length) (Bacteroides fragilis)” has a Km [1, 3] of 0.040 ± 0.004 mM, a kcat [1, 3] of 5.6 ± 0.3 s⁻¹ and a kcat/Km [1, 3] of 140000 M⁻¹ s⁻¹.

SUMO-FKP-NTD (Bacteroides fragilis) showed a Km [1] of 0.080 ± 0.008 mM.

B1: C-terminal domain of FKP (FKP-CTD), individually prepared (domain or fragment, Bacteroides fragilis 9343, UniProt Q58T34 518-949, looked up)
chain: MPELLPEDALQMSRIHNRMLRARILKLDGKDYRPEEQAAFDLLRDGLLDGISNRKSTPKLDVYSDQIVWGRSPVRIDMAGGWTDTPPYSLYSGGNVVNLAIELNGQPPLQVYVKPCKDFHIVLRSIDMGAMEIVSTFDELQDYKKIGSPFSIPKAALSLAGFAPAFSAVSYASLEEQLKDFGAGIEVTLLAAIPAGSGLGTSSILASTVLGAINDFCGLAWDKNEICQRTLVLEQLLTTGGGWQDQYGGVLQGVKLLQTEAGFAQSPLVRWLPDHLFTHPEYKDCHLLYYTGITRTAKGILAEIVSSMFLNSSLHLNLLSEMKAHALDMNEAIQRGSFVEFGRLVGKTWEQNKALDSGTNPPAVEAIIDLIKDYTLGYKLPGAGGGGYLYMVAKDPQAAVRIRKILTENAPNPRARFVEMTLSDKGFQVSRS
notes: L-fucokinase/GDP-fucose pyrophosphorylase (FKP), Bacteroides fragilis 9343, GenBank AY849806, C-terminal domain 518-949 (the abstract says 519-949); The calculated mass is printed as 49 kDa; The abstract gives 519-949, the results 518-949; source: E. coli BL21 (DE3), purified (HiTrap chelating HP, Superdex 200 gel filtration)
With B1 the “stoichiometry N” value [2] was 2.

B2: full-length L-fucokinase/GDP-β-L-fucose pyrophosphorylase (FKP-FL) from Bacteroides fragilis 9343 (enzyme, UniProt Q58T34 1-949, looked up)
chain: MQKLLSLPSNLVQSFHELERVNRTDWFCTSDPVGKKLGSGGGTSWLLEECYNEYSDGATFGEWLEKEKRILLHAGGQSRRLPGYAPSGKILTPVPVFRWERGQHLGQNLLSLQLPLYEKIMSLAPDKLHTLIASGDVYIRSEKPLQSIPEADVVCYGLWVDPSLATHHGVFASDRKHPEQLDFMLQKPSLAELESLSKTHLFLMDIGIWLLSDRAVEILMKRSHKESSEELKYYDLYSDFGLALGTHPRIEDEEVNTLSVAILPLPGGEFYHYGTSKELISSTLSVQNKVYDQRRIMHRKVKPNPAMFVQNAVVRIPLCAENADLWIENSHIGPKWKIASRHIITGVPENDWSLAVPAGVCVDVVPMGDKGFVARPYGLDDVFKGDLRDSKTTLTGIPFGEWMSKRGLSYTDLKGRTDDLQAVSVFPMVNSVEELGLVLRWMLSEPELEEGKNIWLRSEHFSADEISAGANLKRLYAQREEFRKGNWKALAVNHEKSVFYQLDLADAAEDFVRLGLDMPELLPEDALQMSRIHNRMLRARILKLDGKDYRPEEQAAFDLLRDGLLDGISNRKSTPKLDVYSDQIVWGRSPVRIDMAGGWTDTPPYSLYSGGNVVNLAIELNGQPPLQVYVKPCKDFHIVLRSIDMGAMEIVSTFDELQDYKKIGSPFSIPKAALSLAGFAPAFSAVSYASLEEQLKDFGAGIEVTLLAAIPAGSGLGTSSILASTVLGAINDFCGLAWDKNEICQRTLVLEQLLTTGGGWQDQYGGVLQGVKLLQTEAGFAQSPLVRWLPDHLFTHPEYKDCHLLYYTGITRTAKGILAEIVSSMFLNSSLHLNLLSEMKAHALDMNEAIQRGSFVEFGRLVGKTWEQNKALDSGTNPPAVEAIIDLIKDYTLGYKLPGAGGGGYLYMVAKDPQAAVRIRKILTENAPNPRARFVEMTLSDKGFQVSRS
notes: The calculated mass is printed as 108 kDa; also called L-fucokinase/GDP-fucose pyrophosphorylase; source: E. coli BL21 (DE3), purified (HiTrap chelating HP, Superdex 200 gel filtration)
In the case of B2, the “stoichiometry N” value [2] is reported as 4.
